Where a chain is given by its changes, count along the chain named.
Columns and labels:
[1] = target: T1, human GPC3 recombinant protein (purchased from Shanghai Rui Jin Biotechnology Co., Ltd.) (human, UniProt P51654 25-559, limits assumed); assay: single phage ELISA, GPC3 coated 100 ng/well
T1 construct: Bought recombinant protein; also called huGPC3; antigen GPC3
Protocol: (§1) 96 clones were randomly selected in the clones obtained from the fourth round of screening and their binding capability to human GPC3 was analyzed by single phage ELISA (enzyme-linked immunosorbent assay). For this purpose, each single colony was inoculated in 300 μl of 2×YT/ampicillin medium (containing 2% glucose) in a 96-well deep-well plate and cultured with shaking at 37° C. and 250 rpm for 16 hours. 20 μl of culture was inoculated into 500 μl of 2×YT/ampicillin medium (containing 0.1% glucose) and shaken at 37° C. and 250 rpm for 1.5 hours. To prepare the helper phage solution, 75 μl of M13KO7 (titer of 3×10¹² pfu/ml) was taken and mixed into 15 ml of 2×YT medium and added into a culture plate at 50 μl/well, and incubated at 37° C. and 150 rpm for 30 minutes. And then prepared kanamycin solution (180 μl of 50 mg/ml kanamycin was taken and added into 15 ml of 2×YT medium) was added at 50 μl/well and incubated with shaking for 16 hours at 37° C. and 250 rpm. Finally, cells were precipitated by centrifugation (30 mins, 5000×g, 4° C.) and the supernatant was transferred to a new 96-well deep-well plate.
(§2) For single phage ELISA, 100 ng/well of antigen GPC3 and negative control protein BSA (100 μl/well) were used in a 96-well MediSorp ELISA plate (purchased from Nunc) and coated overnight at 4° C. […] Extinction values were measured at 450 nm with an enzyme-linked immunosorbent (Bio-Rad).

[2] = target: T2, BSA (bovine serum albumin), negative control protein (bovine, UniProt P02769 25-607); assay: single phage ELISA, BSA coated 100 ng/well
T2 construct: Coated as negative control in the single phage ELISA
Protocol: as §1, §2

[3] = target: GPC3 expressed on hepatoma cells (HepG2, Huh-7, SK-Hep-1 GPC3) (human, UniProt P51654 25-554); assay: cell-based or functional assay
[4] = target: T3, His-tagged human GPC3 recombinant protein (purchased from Shanghai Rui Jin Biotech Co., Ltd.) (human, UniProt P51654 25-559, limits assumed); assay: flow cytometry of CAR T cells stained with His-tagged human GPC3 (50 ug/ml), anti-His-tag antibody and FITC secondary
T3 construct: Bought; construct not described; not shown: His tag
Protocol: Infected CTL cells were detected by flow cytometry on day 8 of culture for the expression of different chimeric antigen receptors. FACS assays were performed using His-tagged human GPC3 recombinant protein (purchased from Shanghai Rui Jin Biotech Co., Ltd.); the cells were firstly incubated with the protein (50 ug/ml) for 1 hr, washed twice with D-PBS, and Anti-His-tag antibody (1:50 dilution, purchased from Shanghai Reagent Biotechnology Co., Ltd.) was added and incubated for 1 hr and then washed twice with D-PBS and then FITC labeled goat anti-mouse secondary antibody (Shanghai Kangcheng Biotechnology Co., Ltd.), incubated for 50 min, washed with D-PBS for three times, and tested by FACS. Uninfected T lymphocytes was used as a negative control, the positive rates of virus-infected T cells expressing different chimeric antigen receptors are shown in Table 4.

[5] = target: T1, human GPC3 recombinant protein …; assay: SPR Biacore T200, human GPC3 amine-coupled to CM5 (305 RU), antibody as analyte, multi-cycle kinetics, 25 °C
Protocol: (§3) To quantitatively analyze the binding of antibody Y035 to antigen human GPC3, the affinity and kinetic parameters of antibody Y035 were measured by multi-cycle kinetic assay using Biacore T200 system (from GE). Antigen human GPC3 (purchased from Shanghai Rui-Jin Biotechnology Co., Ltd.) was coupled to carboxymethyl dextran surface of sensor chip CM5 through primary amino with NHS/EDC coupling according to the manufacturer's instructions, and the final amount of the conjugated ligand was 305RU. Kinetic measurements were performed in 1×HBS-EP+working buffer at 25° C., 30 μl/min, and regeneration condition was 10 mM Glycine-HCl (pH2.5), 10 μl/min for 25 seconds. In each round of the testing cycle, antibody Y035 of a certain concentration flowed over the chip surface. The interaction between the antibody and the antigen protein human GPC3 fixed on the chip caused the change of the molecular concentration on the surface of the sensor chip which was measured according to changes in SPR Signal and expressed in resonance units (RU). Time vs resonance unit (RU) was plotted and after RU value of the reference channel without fixed antigen was subtracted, the resulting sensorgram documents the entire reaction including the binding and dissociation processes. In different cycles of kinetic assay, the concentration of antibody Y035 was 6.25 nM, 12.5 nM, 25 nM, 50 nM and 100 nM, respectively. The resulting curves were evaluated using Biacore T200 evaluation software and the affinity KD values were calculated. Using the same method, the affinity and kinetic parameters of the parental murine monoclonal antibody 5A5 prior to humanization of Y035 were also assayed. The binding data of antibodies Y035 and 5A5 to human GPC3 proteins, respectively, are summarized in Table 2, and humanized antibody Y035 binds human GPC3 protein much better than mouse 5A5 after humanization.

[6] = target: T1, human GPC3 recombinant protein …; assay: SPR Biacore T200, human GPC3 amine-coupled to CM5, antibody as analyte, multi-cycle kinetics, 25 °C
Protocol: as §3

T2 sequence (P02769 25-607 limits assumed): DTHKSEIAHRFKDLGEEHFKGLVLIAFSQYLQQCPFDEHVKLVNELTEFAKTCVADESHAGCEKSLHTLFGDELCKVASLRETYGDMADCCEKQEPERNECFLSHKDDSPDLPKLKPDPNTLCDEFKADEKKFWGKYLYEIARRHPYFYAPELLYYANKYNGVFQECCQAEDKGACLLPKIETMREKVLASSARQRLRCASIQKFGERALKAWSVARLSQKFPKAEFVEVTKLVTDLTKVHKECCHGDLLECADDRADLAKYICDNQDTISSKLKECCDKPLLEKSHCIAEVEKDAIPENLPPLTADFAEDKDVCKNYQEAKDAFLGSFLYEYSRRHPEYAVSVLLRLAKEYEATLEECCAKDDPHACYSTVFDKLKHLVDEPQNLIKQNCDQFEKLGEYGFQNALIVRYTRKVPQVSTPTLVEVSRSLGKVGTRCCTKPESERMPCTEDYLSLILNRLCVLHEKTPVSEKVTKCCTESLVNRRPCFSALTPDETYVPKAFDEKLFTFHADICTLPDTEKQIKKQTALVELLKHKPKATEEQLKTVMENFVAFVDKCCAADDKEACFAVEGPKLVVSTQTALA

B1: single chain antibody P1B12E (phage-displayed scFv) (scFv)
scFv: QVQLVESGAEVKKPGASVKVSCKASGGTFSSYAISWVRQAPGQGLEWMGGIIPIFGTANYAQKFQGRVTITADESTSTAYMELSSLRSEDTAVYYCAKSPFSGTPGEYWGRGTLVTVSSGGGGSGGGGSGGGGSEIVLTQSPGTLSLSPGERATLSCRASQSVSSNYLAWYQQKPGQAPRLLIYGASRRATGIPDRFSGSGSGTDFTLTISRVEPEDFAVYHCQQYGASPKTFGQGTKLEIKR
notes: Tested as single phage (M13, phagemid pCantab 5E) culture supernatant in ELISA; the phage coat fusion is not described
[1]
  binding result: binds
[2]
  binding result: no binding

B2: chimeric antigen receptor P7D4-BBZ (P7D4 scFv-CD8-CD137-CD3 zeta), on T cells (other)
chain: QVQLQESGGGLVQPGRSLRLSCAASGFTFSSYAMHWVRQAPGKGLEWVSAISGSGGSTYYADSVKGRFTISRDNSKNTLYLQMNSLRAEDTAVYYCAKDRRGSHADAFDVWGQGTLVTVSSGGGGSGGGGSGGGGSQSALTQPPSASGSPGQSVTISCTGTSSDVGGYNYVSWYQQYPGKAPKLLIYGNSNRPSGVPDRFSGSKSGTSASLAITGLQAEDGADYYCQSYDSSLRVVFGGGTKVTVLGTTTPAPRPPTPAPTIASQPLSLRPEACRPAAGGAVHTRGLDFACDIYIWAPLAGTCGVLLLSLVITLYCKRGRKKLLYIFKQPFMRPVQTTQEEDGCSCRFPEEEEGGCELRVKFSRSADAPAYKQGQNQLYNELNLGRREEYDVLDKRRGRDPEMGGKPRRKNPQEGLYNELQKDKMAEAYSEIGMKGERRRGKGHDGLYQGLSTATKDTYDALHMQALPPR
notes: Second generation CAR on human T cells; also called P7D4 scFv-BBZ
[3]
  Cytotoxicity (%) on HepG2 cells, effector target ratio 1:1 (LDH release, 18 h): 38.6%
  Cytotoxicity (%) on HepG2 cells, effector target ratio 1:3 (LDH release, 18 h): 13.9%
  Cytotoxicity (%) on HepG2 cells, effector target ratio 3:1 (LDH release, 18 h): 71.3%
  Cytotoxicity (%) on HuH-7 cells, effector target ratio 1:1 (LDH release, 18 h): 32.2%
  Cytotoxicity (%) on HuH-7 cells, effector target ratio 1:3 (LDH release, 18 h): 10.2%
  Cytotoxicity (%) on HuH-7 cells, effector target ratio 3:1 (LDH release, 18 h): 69.2%
[4]
  Positive rate of T cells transfection: 53%

B3: chimeric antigen receptor P7D4-δZ (P7D4 scFv-CD8-CD3δzeta), on T cells (other)
chain: QVQLQESGGGLVQPGRSLRLSCAASGFTFSSYAMHWVRQAPGKGLEWVSAISGSGGSTYYADSVKGRFTISRDNSKNTLYLQMNSLRAEDTAVYYCAKDRRGSHADAFDVWGQGTLVTVSSGGGGSGGGGSGGGGSQSALTQPPSASGSPGQSVTISCTGTSSDVGGYNYVSWYQQYPGKAPKLLIYGNSNRPSGVPDRFSGSKSGTSASLAITGLQAEDGADYYCQSYDSSLRVVFGGGTKVTVLGTTTPAPRPPTPAPTIASQPLSLRPEACRPAAGGAVHTRGLDFACDIYIWAPLAGTCGVLLLSLVITRVKFSRSADAPA
notes: Chimeric antigen receptor on lentivirus-infected human T cells; negative control without ITAM; also called P7D4-8Z; P7D4 scFv-δZ
[3]
  Cytotoxicity (%) on HepG2 cells, effector target ratio 1:1 (LDH release, 18 h); signalling-dead negative control CAR: 2.5%
  Cytotoxicity (%) on HepG2 cells, effector target ratio 1:3 (LDH release, 18 h); signalling-dead negative control CAR: 3.2%
  Cytotoxicity (%) on HepG2 cells, effector target ratio 3:1 (LDH release, 18 h); signalling-dead negative control CAR: 4.8%
  Cytotoxicity (%) on HuH-7 cells, effector target ratio 1:1 (LDH release, 18 h); signalling-dead negative control CAR: 1.3%
  Cytotoxicity (%) on HuH-7 cells, effector target ratio 1:3 (LDH release, 18 h); signalling-dead negative control CAR: 5.3%
  Cytotoxicity (%) on HuH-7 cells, effector target ratio 3:1 (LDH release, 18 h); signalling-dead negative control CAR: 3.2%
[4]
  Positive rate of T cells transfection: 59%

B4: humanized antibody Y035 (antibody, V domains shown)
VH: EVQLVQSGAEVKKPGASVKVSCKASGYTFSDYEMHWVRQAPGQGLEWMGAIHPGSGDTAYNQRFKGRVTITADKSTSTAYMELSSLRSEDTAVYYCARFYSYAYWGQGTLVTVSA
VL: DIVMTQTPLSLPVTPGEPASISCRSSQSLVHSNGNTYLQWYLQKPGQSPQLLIYKVSNRFSGVPDRFSGSGSGTDFTLKISRVEAEDVGVYYCSQSIYVPYTFGQGTKLEIKR
notes: Whole antibody expressed in 293F from vectors pIH-hu12H (heavy) and pIK-hu12L (light), purified on Protein A, detected with goat anti-human antibody
[5]
  Kd: 0.0634 nM
  koff: 2.51e-05 s⁻¹
  kon: 396000 M⁻¹ s⁻¹

B5: parental murine monoclonal antibody 5A5 (antibody, V domains shown)
VH: QVQLQQSGTELVRPGASVKLSCKALGYTFTDYEMHWVKQTPVHGLEWIGAIHPGSGDTAYNQRFKGKATLTADKSSSTAYMEYSSLTSEDSAVYYCTRFYSYAYWGQGTLVTVSA
VL: B4 VL with I2V, T14S, P15L, E17D, P18Q, Q50K, S70R, V88L, Y92F, Q105G
notes: Mouse hybridoma antibody purified from ascites on Protein G; also called mouse 5A5
[6]
  Kd: 0.0819 nM
  koff: 2.3e-05 s⁻¹
  kon: 280000 M⁻¹ s⁻¹

B6: single chain antibody P7D4 (phage-displayed scFv) (scFv)
scFv: QVQLQESGGGLVQPGRSLRLSCAASGFTFSSYAMHWVRQAPGKGLEWVSAISGSGGSTYYADSVKGRFTISRDNSKNTLYLQMNSLRAEDTAVYYCAKDRRGSHADAFDVWGQGTLVTVSSGGGGSGGGGSGGGGSQSALTQPPSASGSPGQSVTISCTGTSSDVGGYNYVSWYQQYPGKAPKLLIYGNSNRPSGVPDRFSGSKSGTSASLAITGLQAEDGADYYCQSYDSSLRVVFGGGTKVTVLG
notes: Tested as single phage (M13, phagemid pCantab 5E) culture supernatant in ELISA
[1]
  binding result: binds
[2]
  binding result: no binding

— US20240342305A1 (published 2024)
